Source: paper doi:10.1101/2022.11.07.515429 (bioRxiv, 2022)

Molecular target: T1, Strep-PRP5 (human, UniProt Q7L014 1-1031)
T1 sequence: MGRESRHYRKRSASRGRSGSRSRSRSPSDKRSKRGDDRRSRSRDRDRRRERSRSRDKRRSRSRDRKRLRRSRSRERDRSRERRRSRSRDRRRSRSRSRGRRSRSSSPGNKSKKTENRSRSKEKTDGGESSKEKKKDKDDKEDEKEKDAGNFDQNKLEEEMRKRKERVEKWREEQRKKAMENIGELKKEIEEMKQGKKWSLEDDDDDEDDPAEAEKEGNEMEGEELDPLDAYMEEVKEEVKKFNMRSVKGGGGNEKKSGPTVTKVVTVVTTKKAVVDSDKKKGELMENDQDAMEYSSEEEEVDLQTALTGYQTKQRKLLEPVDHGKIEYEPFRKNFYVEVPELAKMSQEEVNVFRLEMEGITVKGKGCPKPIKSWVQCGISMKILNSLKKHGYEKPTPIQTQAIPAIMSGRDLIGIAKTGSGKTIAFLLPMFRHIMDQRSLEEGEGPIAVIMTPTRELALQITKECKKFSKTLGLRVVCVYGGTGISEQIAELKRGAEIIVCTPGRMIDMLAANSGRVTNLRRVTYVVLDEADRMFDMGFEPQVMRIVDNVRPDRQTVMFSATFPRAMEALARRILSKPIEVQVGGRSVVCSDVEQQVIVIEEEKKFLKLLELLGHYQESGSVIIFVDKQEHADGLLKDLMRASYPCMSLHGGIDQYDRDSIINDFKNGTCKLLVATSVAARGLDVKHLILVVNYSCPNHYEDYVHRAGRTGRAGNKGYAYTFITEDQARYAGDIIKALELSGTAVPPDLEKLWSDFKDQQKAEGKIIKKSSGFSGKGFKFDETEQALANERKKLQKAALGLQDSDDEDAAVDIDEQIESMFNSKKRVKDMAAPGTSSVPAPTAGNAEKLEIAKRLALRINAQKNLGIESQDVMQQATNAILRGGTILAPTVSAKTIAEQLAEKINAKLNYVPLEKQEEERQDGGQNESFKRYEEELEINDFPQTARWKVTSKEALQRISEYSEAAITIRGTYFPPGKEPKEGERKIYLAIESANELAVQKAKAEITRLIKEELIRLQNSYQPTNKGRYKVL
Assay: pull-down

B1: Flag-tagged SF3B1 K700E (natural protein, human, UniProt O75533 1-1304, looked up)
chain: MAKIAKTHEDIEAQIREIQGKKAALDEAQGVGLDSTGYYDQEIYGGSDSRFAGYVTSIAATELEDDDDDYSSSTSLLGQKKPGYHAPVALLNDIPQSTEQYDPFAEHRPPKIADREDEYKKHRRTMIISPERLDPFADGGKTPDPKMNARTYMDVMREQHLTKEEREIRQQLAEKAKAGELKVVNGAAASQPPSKRKRRWDQTADQTPGATPKKLSSWDQAETPGHTPSLRWDETPGRAKGSETPGATPGSKIWDPTPSHTPAGAATPGRGDTPGHATPGHGGATSSARKNRWDETPKTERDTPGHGSGWAETPRTDRGGDSIGETPTPGASKRKSRWDETPASQMGGSTPVLTPGKTPIGTPAMNMATPTPGHIMSMTPEQLQAWRWEREIDERNRPLSDEELDAMFPEGYKVLPPPAGYVPIRTPARKLTATPTPLGGMTGFHMQTEDRTMKSVNDQPSGNLPFLKPDDIQYFDKLLVDVDESTLSPEEQKERKIMKLLLKIKNGTPPMRKAALRQITDKAREFGAGPLFNQILPLLMSPTLEDQERHLLVKVIDRILYKLDDLVRPYVHKILVVIEPLLIDEDYYARVEGREIISNLAKAAGLATMISTMRPDIDNMDEYVRNTTARAFAVVASALGIPSLLPFLKAVCKSKKSWQARHTGIKIVQQIAILMGCAILPHLRSLVEIIEHGLVDEQQEVRTISALAIAALAEAATPYGIESFDSVLKPLWKGIRQHRGKGLAAFLKAIGYLIPLMDAEYANYYTREVMLILIREFQSPDEEMKKIVLKVVKQCCGTDGVEANYIKTEILPPFFKHFWQHRMALDRRNYRQLVDTTVELANKVGAAEIISRIVDDLKDEAEQYRKMVMETIEKIMGNLGAADIDHKLEEQLIDGILYAFQEQTTEDSVMLNGFGTVVNALGKRVKPYLPQICGTVLWRLNNKSAKVRQQAADLISRTAVVMKTCQEEKLMGHLGVVLYEYLGEEYPEVLGSILGALKAIVNVIGMHKMTPPIKDLLPRLTPILKNRHEKVQENCIDLVGRIADRGAEYVSAREWMRICFELLELLKAHKKAIRRATVNTFGYIAKAIGPHDVLATLLNNLKVQERQNRVCTTVAIAIVAETCSPFTVLPALMNEYRVPELNVQNGVLKSLSFLFEYIGEMGKDYIYAVTPLLEDALMDRDLVHRQTASAVVQHMSLGVYGFGCEDSLNHLLNYVWPNVFETSPHVIQAVMGALEGLRVAIGPCRMLQYCLQGLFHPARKVRDVYWKIYNSIYIGSQDALIAHYPRIYNDDKNTYIRYELDYIL
- relative binding ratio (pulldown over input, normalised to WT): 64 percent
